# Measured values from paper PMC11912399.
# Molecular target: CrImpαΔIBB (Chlamydomonas reinhardtii importin α IPA1, Cre04.g215850, lacking the autoinhibitory IBB domain) (Chlamydomonas reinhardtii)
# Assay: MST
row,Substance,Kd
1,SN Cas9 (Cas9 with the SV40TAg NLS fused to its N-terminus) (enzyme),11.4 nM
2,DN Cas9 (Cas9 with the VirD2^O NLS fused to its N-terminus) (enzyme),4.48 nM

# Molecular target: CrImpαΔIBB (Chlamydomonas reinhardtii importin α IPA1, Cre04.g215850, lacking the autoinhibitory IBB domain) (Chlamydomonas reinhardtii)
# Assay: ELISA
row,Substance,Kd
1,"D^K1AR2AR15AN Cas9 (DN Cas9 with K1A, R2A and R15A in the VirD2^O NLS) (enzyme)",42.6 nM
2,SC Cas9 (Cas9 with the SV40TAg NLS fused to its C-terminus) (enzyme),9.21 nM
3,PN Cas9 (Cas9 with the putative endogenous CrPAP1 NLS fused to its N-terminus) (enzyme),17.1 nM
4,D^K1AR2AN Cas9 (DN Cas9 with K1A and R2A in the VirD2^O NLS) (enzyme),13.3 nM
5,EC Cas9 (Cas9 with the VirE2^O NLS fused to its C-terminus) (enzyme),6.9 nM
6,EN Cas9 (Cas9 with the VirE2^O NLS fused to its N-terminus) (enzyme),7.81 nM
7,SN Cas9 (Cas9 with the SV40TAg NLS fused to its N-terminus) (enzyme),8.73 nM
8,D^R15AN Cas9 (DN Cas9 with R15A in the VirD2^O NLS) (enzyme),15.2 nM
9,DN Cas9 (Cas9 with the VirD2^O NLS fused to its N-terminus) (enzyme),4.79 nM
10,DC Cas9 (Cas9 with the VirD2^O NLS fused to its C-terminus) (enzyme),5.01 nM
11,D^NopN Cas9 (Cas9 with the nopaline-type VirD2^N NLS fused to its N-terminus) (enzyme),7.88 nM
